According to patent US20200199647A1, “ASSAY FOR SCREENING MODULATORS OF HOLOPHOSPHATASE ACTIVITY” (UNITED KINGDOM RESEARCH AND INNOVATION, priority 2017, published 2020):

How the values were obtained:
[1] = molecular target: P-eIF2α (human eIF2α amino acids 1-185 solubility mutant, C-terminal His6-tag, phosphorylated on Ser51) (human) (UniProt P05198); experiment: thermophoresis (MST), labelled P-eIF2α, unlabelled PP1c^D95A titrated
[2] = molecular target: PP1c (human PP1cα amino acids 7-330, N-terminal Thio6/His6 tag) (human) (UniProt P62136); experiment: thermophoresis (MST), labelled PP1c, unlabelled R15A titrated
Chain of PP1c (human PP1cα amino acids 7-330, N-terminal Thio6/His6 tag) (human) (P62136 other isoform, or with tags, fused parts or gaps): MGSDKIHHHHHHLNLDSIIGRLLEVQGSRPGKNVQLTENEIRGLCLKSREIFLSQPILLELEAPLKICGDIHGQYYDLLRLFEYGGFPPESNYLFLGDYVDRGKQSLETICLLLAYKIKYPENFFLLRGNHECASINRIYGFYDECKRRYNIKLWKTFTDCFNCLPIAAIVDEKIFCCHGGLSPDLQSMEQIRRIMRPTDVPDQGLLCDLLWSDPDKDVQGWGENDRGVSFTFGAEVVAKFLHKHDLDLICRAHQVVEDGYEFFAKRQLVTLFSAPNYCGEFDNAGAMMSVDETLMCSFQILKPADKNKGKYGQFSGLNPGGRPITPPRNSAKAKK

[3] = molecular target: P-eIF2α (human eIF2α amino acids 1-185 solubility mutant, C-terminal His6-tag, phosphorylated on Ser51) (human) (UniProt P05198); experiment: thermophoresis
Target sequence in this assay (P05198 other isoform, or with tags, fused parts or gaps mutant): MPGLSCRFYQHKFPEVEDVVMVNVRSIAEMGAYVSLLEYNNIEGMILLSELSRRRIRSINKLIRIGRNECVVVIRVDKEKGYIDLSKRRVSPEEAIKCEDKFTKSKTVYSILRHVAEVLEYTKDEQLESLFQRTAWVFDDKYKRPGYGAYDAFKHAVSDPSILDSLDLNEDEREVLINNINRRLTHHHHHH

[4] = molecular target: P-eIF2α (human eIF2α amino acids 1-185 solubility mutant, C-terminal His6-tag, phosphorylated on Ser51) (human) (UniProt P05198); experiment: thermophoresis (MST), labelled P-eIF2α with 10 µM R15A, unlabelled PP1c^D95A titrated
[5] = molecular target: PP1c (human PP1cα amino acids 7-330, N-terminal Thio6/His6 tag) (human) (UniProt P62136); experiment: thermophoresis
[6] = molecular target: P-eIF2α (human eIF2α amino acids 1-185 solubility mutant, C-terminal His6-tag, phosphorylated on Ser51) (human) (UniProt P05198); experiment: thermophoresis (MST), labelled P-eIF2α with 10 µM R15B, unlabelled PP1c^D95A titrated

**Q.** For “PP1c^D95A (human PP1cα amino acids 7-330, D95A, N-terminal Thio6/His6 tag) (from UniProt P62136 7-330) (enzyme)”, which Kd [1] is on record?
**A.** 650 nM

**Q.** Which results are given for “R15A (human PPP1R15A amino acids 325-636, N-terminal MBP-tag, C-terminal His6-tag) (from UniProt O75807 325-636)”?
**A.** Kd [2]: 60 nM; Kd [3]: 340 nM

**Q.** For “R15A-PP1c^D95A holophosphatase complex (from UniProt O75807 325-636; P62136 7-330)”, which fold higher affinity than the isolated PP1c^D95A [4] is on record?
**A.** 5.4 times

**Q.** Which Kd [5] does the source give for “R15A^C (human PPP1R15A amino acids 513-636, N-terminal MBP-tag, C-terminal His6-tag) (from UniProt O75807 513-636)” here?
**A.** 190 nM

**Q.** How did the Kd [3] turn out when “R15A^N (human PPP1R15A amino acids 325-512, N-terminal MBP-tag, C-terminal His6-tag) (from UniProt O75807 325-512)” was run?
**A.** 440 nM

**Q.** Which Kd [3] does the source give for “R15B (human PPP1R15B amino acids 340-698, N-terminal MBP-tag, C-terminal His6-tag) (from UniProt Q5SWA1 340-698)” here?
**A.** 550 nM

**Q.** For “R15B-PP1c^D95A holophosphatase complex (from UniProt P0AEX9 27-392; Q5SWA1 340-698; P62136 7-330)”, which fold higher affinity than the isolated PP1c^D95A [6] is on record?
**A.** 3 times

**Q.** Which Kd [3] does the source give for “R15B^N (human PPP1R15B amino acids 340-635, N-terminal MBP-tag, C-terminal His6-tag) (from UniProt Q5SWA1 340-635)” here?
**A.** 530 nM
